Source: the supplement of paper PMC11246515
± gives the standard deviation of the averaged measurements.

Assay: total protein half-life in vivo (active degradation + dilution); higher = more stable protein
[1] = E. coli NCM3722 delta-clpP delta-lon delta-hslV, growth: N-lim chemostat, doubling time 6 h
[2] = E. coli NCM3722 delta-clpP, growth: N-lim chemostat, doubling time 6 h
[3] = E. coli NCM3722 delta-hslV, growth: N-lim chemostat, doubling time 6 h
[4] = E. coli NCM3722 delta-lon, growth: N-lim chemostat, doubling time 6 h
[5] = E. coli NCM3722 delta-smpB, growth: N-lim chemostat, doubling time 6 h
[6] = wild type E. coli NCM3722, growth: C-lim chemostat, doubling time 3 h
[7] = wild type E. coli NCM3722, growth: C-lim chemostat, doubling time 6 h
[8] = wild type E. coli NCM3722, growth: C-lim chemostat, doubling time 12 h
[9] = wild type E. coli NCM3722, growth: N-lim chemostat, doubling time 6 h
[10] = wild type E. coli NCM3722, growth: N-lim chemostat, doubling time 12 h
[11] = wild type E. coli NCM3722, growth: P-lim chemostat, doubling time 6 h
[12] = wild type E. coli NCM3722, growth: P-lim chemostat, doubling time 12 h

MLKKCLPLLLLCTAPVFAKPVLTVYTYDSFAADWGPGPVVKKAFEADCNCELKLVALEDGVSLLNRLRMEGKNSKADVVLGLDNNLLDAASKTGLFAKSGVAADAVNVPGGWNNDTFVPFDYGYFAFVYDKNKLKNPPQSLKELVESDQNWRVIYQDPRTSTPGLGLLLWMQKVYGDDAPQAWQKLAKKTVTVTKGWSEAYGLFLKGESDLVLSYTTSPAYHILEEKKDNYAAANFSEGHYLQVEVAARTAASKQPELAQKFLQFMVSPAFQNAIPTGNWMYPVANVTLPAGFEKLTKPATTLEFTPAEVAAQRQAWISEWQRAVSR
total protein half-life in vivo [1]: 4.4 ± 0.16 h
total protein half-life in vivo [2]: 5.26 ± 0.44 h
total protein half-life in vivo [3]: 6.48 ± 0.38 h
total protein half-life in vivo [4]: 5.82 ± 0.072 h
total protein half-life in vivo [5]: 6.33 ± 0.42 h
total protein half-life in vivo [6]: 3.19 ± 0.21 h
total protein half-life in vivo [7]: 6.11 ± 0.24 h
total protein half-life in vivo [8]: 11 ± 0.89 h
total protein half-life in vivo [9]: 6.3 ± 0.13 h
total protein half-life in vivo [10]: 14 ± 2.2 h
total protein half-life in vivo [11]: 5.65 ± 0.23 h
total protein half-life in vivo [12]: 12.9 ± 0.7 h

MLKKILLLALLPAIAFAEELPAPVKAIEKQGITIIKTFDAPGGMKGYLGKYQDMGVTIYLTPDGKHAISGYMYNEKGENLSNTLIEKEIYAPAGREMWQRMEQSHWLLDGKKDAPVIVYVFADPFCPYCKQFWQQARPWVDSGKVQLRTLLVGVIKPESPATAAAILASKDPAKTWQQYEASGGKLKLNVPANVSTEQMKVLSDNEKLMDDLGANVTPAIYYMSKENTLQQAVGLPDQKTLNIIMGNK
total protein half-life in vivo [1]: 5.17 ± 0.63 h
total protein half-life in vivo [2]: 5.5 ± 0.14 h
total protein half-life in vivo [3]: 6.05 ± 0.24 h
total protein half-life in vivo [4]: 6.69 ± 1 h
total protein half-life in vivo [5]: 5.98 ± 0.33 h
total protein half-life in vivo [6]: 3.016 ± 0.006 h
total protein half-life in vivo [7]: 6.29 ± 0.74 h
total protein half-life in vivo [8]: 11.3 ± 1.4 h
total protein half-life in vivo [9]: 6.16 ± 0.33 h
total protein half-life in vivo [10]: 12.6 ± 0.62 h
total protein half-life in vivo [11]: 5.78 ± 0.55 h
total protein half-life in vivo [12]: 12.5 ± 0.27 h

MLKPDNLPVTFGKNDVEIIARETLYRGFFSLDLYRFRHRLFNGQMSHEVRREIFERGHAAVLLPFDPVRDEVVLIEQIRIAAYDTSETPWLLEMVAGMIEEGESVEDVARREAIEEAGLIVKRTKPVLSFLASPGGTSERSSIMVGEVDATTASGIHGLADENEDIRVHVVSREQAYQWVEEGKIDNAASVIALQWLQLHHQALKNEWA [Q93K97]
total protein half-life in vivo [2]: 4.47 ± 0.8 h
total protein half-life in vivo [3]: 4.6 ± 0.65 h
total protein half-life in vivo [4]: 4.759 ± 0.044 h
total protein half-life in vivo [5]: 4.63 ± 0.46 h
total protein half-life in vivo [6]: 3.05 ± 0.36 h
total protein half-life in vivo [7]: 5.79 ± 0.16 h
total protein half-life in vivo [8]: 11 ± 0.82 h
total protein half-life in vivo [9]: 4.23 ± 0.34 h
total protein half-life in vivo [10]: 7.1411 ± 0.0014 h
total protein half-life in vivo [11]: 5.98 ± 0.42 h
total protein half-life in vivo [12]: 12.9 ± 0.41 h

MLKPEMIEKLNEQMNLELYSSLLYQQMSAWCSYHTFEGAAAFLRRHAQEEMTHMQRLFDYLTDTGNLPRINTVESPFAEYSSLDELFQETYKHEQLITQKINELAHAAMTNQDYPTFNFLQWYVSEQHEEEKLFKSIIDKLSLAGKSGEGLYFIDKELSTLDTQN [P0A998]
total protein half-life in vivo [1]: 5.44 ± 1.7 h
total protein half-life in vivo [2]: 3.41 ± 0.55 h
total protein half-life in vivo [3]: 3.94 ± 1.3 h
total protein half-life in vivo [4]: 4.12 ± 0.86 h
total protein half-life in vivo [5]: 3.38 ± 1.6 h
total protein half-life in vivo [7]: 5.8 ± 0.56 h
total protein half-life in vivo [9]: 3.33 ± 0.25 h
total protein half-life in vivo [10]: 4.479 ± 0.025 h
total protein half-life in vivo [11]: 4.92 ± 0.45 h
total protein half-life in vivo [12]: 10.6 ± 0.44 h

MLKRKKVKPITLRDVTIIDDGKLRKAITAASLGNAMEWFDFGVYGFVAYALGKVFFPGADPSVQMVAALATFSVPFLIRPLGGLFFGMLGDKYGRQKILAITIVIMSISTFCIGLIPSYDTIGIWAPILLLICKMAQGFSVGGEYTGASIFVAEYSPDRKRGFMGSWLDFGSIAGFVLGAGVVVLISTIVGEANFLDWGWRIPFFIALPLGIIGLYLRHALEETPAFQQHVDKLEQGDREGLQDGPKVSFKEIATKYWRSLLTCIGLVIATNVTYYMLLTYMPSYLSHNLHYSEDHGVLIIIAIMIGMLFVQPVMGLLSDRFGRRPFVLLGSVALFVLAIPAFILINSNVIGLIFAGLLMLAVILNCFTGVMASTLPAMFPTHIRYSALAAAFNISVLVAGLTPTLAAWLVESSQNLMMPAYYLMVVAVVGLITGVTMKETANRPLKGATPAASDIQEAKEILVEHYDNIEQKIDDIDHEIADLQAKRTRLVQQHPRIDE [P0C0L7]
total protein half-life in vivo [1]: 5.246 ± 0.018 h
total protein half-life in vivo [2]: 4.97 ± 0.25 h
total protein half-life in vivo [3]: 4.59 ± 0.35 h
total protein half-life in vivo [4]: 4.34 ± 0.14 h
total protein half-life in vivo [5]: 5.04 ± 0.79 h
total protein half-life in vivo [7]: 4.62 ± 0.43 h
total protein half-life in vivo [8]: 7.56 ± 3.2 h
total protein half-life in vivo [9]: 4.46 ± 0.41 h
total protein half-life in vivo [10]: 10.4 ± 2.3 h
total protein half-life in vivo [11]: 4.78 ± 0.066 h
total protein half-life in vivo [12]: 7.9 ± 0.16 h

MLKTISPLISPELLKVLAEMGHGDEIIFSDAHFPAHSMGPQVIRADGLLVSDLLQAIIPLFELDSYAPPLVMMAAVEGDTLDPEVERRYRNALSLQAPCPDIIRINRFAFYERAQKAFAIVITGERAKYGNILLKKGVTP [P0AEN8]
total protein half-life in vivo [1]: 6.09 ± 0.27 h
total protein half-life in vivo [2]: 6.25 ± 0.67 h
total protein half-life in vivo [3]: 6.67 ± 1.6 h
total protein half-life in vivo [5]: 5.51 ± 0.094 h
total protein half-life in vivo [6]: 3.05 ± 0.092 h
total protein half-life in vivo [7]: 6.7 ± 0.48 h
total protein half-life in vivo [8]: 13.2 ± 0.83 h
total protein half-life in vivo [9]: 5.36 ± 0.38 h
total protein half-life in vivo [10]: 10.4 ± 1.1 h
total protein half-life in vivo [11]: 5.89 ± 0.63 h
total protein half-life in vivo [12]: 12.3 ± 0.71 h
